Assay [1] addresses hFcγRIIIaV on Jurkat effector cells (human, UniProt P08637 17-254). Nature of the assay: cell-based or functional assay.
Assay [2] addresses T1, hFcγRIIaH on Jurkat effector cells (human, UniProt P12318 34-317).
T1 sequence (looked up): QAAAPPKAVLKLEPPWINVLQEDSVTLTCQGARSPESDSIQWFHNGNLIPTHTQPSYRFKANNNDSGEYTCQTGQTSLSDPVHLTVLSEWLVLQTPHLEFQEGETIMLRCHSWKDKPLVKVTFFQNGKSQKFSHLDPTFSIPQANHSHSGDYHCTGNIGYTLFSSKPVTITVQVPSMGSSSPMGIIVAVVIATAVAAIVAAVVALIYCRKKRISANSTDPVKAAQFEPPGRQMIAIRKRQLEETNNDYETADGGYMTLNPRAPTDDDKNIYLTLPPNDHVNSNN
Nature of the assay: cell-based or functional assay.

In assay [3] the target is T2, human FcγRIa extracellular domain (human, UniProt P12314 16-292).
T2 construct: extracellular domain; also called hFcγR Ia
Nature of the assay: SPR; KD of G1d divided by KD of this antibody. As to the method: (§1) The extracellular domains of FcγRs were produced by the method described in WO2014104165. The interaction between the produced antibodies and human FcγRs was analyzed using Biacore 8K+ by the method below. For the running buffer, 50 mM Na-Phosphate, 150 mM NaCl, and 0.05% Tween20 (pH 7.4) was used, and measurement was performed at 25° C. The sensor chip used was a Series S SA chip (GE Healthcare) onto which CaptureSelect Human Fab-kappa Kinetics Biotin Conjugate (Thermo Fisher Scientific) was immobilized. An antibody of interest was captured onto this chip, and each FcγR diluted with the running buffer was allowed to interact with it. The chip was regenerated using 10 mM Glycine-HCl (pH 1.5), and repeatedly used to capture antibodies and perform measurement. The dissociation constants KD (mol/L) of each antibody for FcγRs were calculated using Biacore Insight Evaluation Software, with a steady state affinity model for the dissociation constant for FcγRIIb and a 1:1 Langmuir binding model for the dissociation constants for the other FcγRs (Table 2).
In general terms: Surface plasmon resonance follows binding to a sensor surface in real time, without labels.

The target in assay [4] is T3, human FcγRIIa H extracellular domain (human, UniProt P12318 34-217).
T3 construct: extracellular domain; also called hFcγR IIa H; FcγRIIa allotype H131
T3 sequence (looked up): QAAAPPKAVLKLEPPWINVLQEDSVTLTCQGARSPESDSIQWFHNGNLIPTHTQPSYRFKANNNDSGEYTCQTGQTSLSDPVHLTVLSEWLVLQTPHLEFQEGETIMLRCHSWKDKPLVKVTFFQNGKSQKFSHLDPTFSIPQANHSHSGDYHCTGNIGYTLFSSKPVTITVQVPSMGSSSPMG
Nature of the assay: SPR; KD of G1d divided by KD of this antibody. As to the method:
as §1

Assay [5] has as its target T4, human FcγRIIa R extracellular domain (human, UniProt P12318 34-217).
T4 construct: extracellular domain; also called hFcγR IIa R; FcγRIIa allotype R131
T4 sequence (looked up): T3 sequence (looked up) with H134R
Nature of the assay: SPR; KD of G1d divided by KD of this antibody. As for the experimental part: as §1

The target in assay [6] is T5, human FcγRIIb extracellular domain (human, UniProt P31994 43-217).
T5 construct: extracellular domain; also called hFcγR IIb
T5 sequence (looked up): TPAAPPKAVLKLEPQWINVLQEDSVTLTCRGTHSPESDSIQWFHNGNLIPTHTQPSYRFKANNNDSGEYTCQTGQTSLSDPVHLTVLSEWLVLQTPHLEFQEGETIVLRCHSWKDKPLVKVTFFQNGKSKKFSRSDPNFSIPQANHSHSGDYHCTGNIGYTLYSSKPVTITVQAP
Nature of the assay: SPR; KD of G1d divided by KD of this antibody. As to the method: as §1

For assay [7], the target named is T6, human FcγRIIIa F extracellular domain (human, UniProt P08637 17-208).
T6 construct: extracellular domain; also called hFcγR IIIa F; FcγRIIIa allotype F158
Nature of the assay: SPR; KD of G1d divided by KD of this antibody. As to the method: as §1

In assay [8] the target is T7, human FcγRIIIa V extracellular domain (human, UniProt P08637 17-208).
T7 construct: extracellular domain; also called hFcγR IIIa V; FcγRIIIa allotype V158
Nature of the assay: SPR; KD of G1d divided by KD of this antibody. As for the experimental part: as §1

In assay [9] the target is T3, human FcγRIIa H extracellular domain. Nature of the assay: SPR; KD for hFcγRIIb divided by KD for this FcγR. As to the method: as §1
The target in assay [10] is T4, human FcγRIIa R extracellular domain. Nature of the assay: SPR; KD for hFcγRIIb divided by KD for this FcγR. As for the experimental part: as §1
Assay [11] concerns the target T6, human FcγRIIIa F extracellular domain. Nature of the assay: SPR; KD for hFcγRIIb divided by KD for this FcγR. As to the method: as §1
Assay [12] concerns the target T7, human FcγRIIIa V extracellular domain. Nature of the assay: SPR; KD for hFcγRIIb divided by KD for this FcγR. As for the experimental part:
as §1

Changes are numbered by the printed parent chain. In names and notes the source's numbering stands.

Chain of hFcγRIIIaV on Jurkat effector cells (P08637 17-254, form in doubt): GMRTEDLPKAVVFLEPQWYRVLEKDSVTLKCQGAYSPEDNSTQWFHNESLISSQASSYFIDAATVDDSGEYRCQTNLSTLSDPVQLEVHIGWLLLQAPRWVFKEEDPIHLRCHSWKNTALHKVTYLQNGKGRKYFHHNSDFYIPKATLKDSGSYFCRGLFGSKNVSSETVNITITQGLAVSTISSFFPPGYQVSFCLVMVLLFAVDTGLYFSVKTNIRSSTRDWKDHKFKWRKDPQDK
T7 sequence (P08637 17-208 F176V): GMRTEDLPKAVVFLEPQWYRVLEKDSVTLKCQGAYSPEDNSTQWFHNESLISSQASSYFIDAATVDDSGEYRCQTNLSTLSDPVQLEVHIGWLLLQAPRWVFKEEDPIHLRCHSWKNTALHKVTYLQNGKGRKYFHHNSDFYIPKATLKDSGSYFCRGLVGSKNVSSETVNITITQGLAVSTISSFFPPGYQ
T6 sequence (P08637 17-208): as the sequence (P08637 17-208 F176V) above, with V160F counted along it
T2 sequence (P12314 16-292): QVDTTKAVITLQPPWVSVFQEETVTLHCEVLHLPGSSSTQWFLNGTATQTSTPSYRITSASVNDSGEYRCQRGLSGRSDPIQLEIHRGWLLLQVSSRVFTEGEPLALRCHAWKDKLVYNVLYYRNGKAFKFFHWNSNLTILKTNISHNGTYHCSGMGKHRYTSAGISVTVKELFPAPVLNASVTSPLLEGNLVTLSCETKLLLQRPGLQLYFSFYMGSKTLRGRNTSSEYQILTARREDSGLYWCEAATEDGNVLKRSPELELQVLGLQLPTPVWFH

B1: EGL-ART2 (H240-Kn120/L73-k0//H240-H1068/L73-k0) (antibody, human IgG1, kappa)
heavy 1: QDQLVQSGAEVKKPGASVKVSCKASGFNIKDTYIQWVRQAPGQGLEWMGRIDPLRKQTKYREKFEGRVTITADTSTNTAYMELSSLRSEDTAVYYCVRSGREFDYWGQGTLVTVSSASTKGPSVFPLAPSSKSTSGGTAALGCLVKDYFPEPVTVSWNSGALTSGVHTFPAVLQSSGLYSLSSVVTVPSSSLGTQTYICNVNHKPSNTKVDKKVEPKSCDKTHTCPPCPAPEYYWGPMVFLFPPKPKDTLMISRTPEVTCVVVDVSDEDPEVKFNWYVDGVEVHNAKTKPREEQYNATYRVVSVLTVLHQDWLNGKEYKCKVSNKDLPAPIEKTISKAKGQPREPQVCTLPPSRDELTKNQVSLWCLVKGFYPSDIAVEWESNGQPENNYKTTPPVLDSDGSFFLYSKLTVDKSRWQQGNVFSCSVMHEALHNHYTQKSLSLSP
heavy 2: QDQLVQSGAEVKKPGASVKVSCKASGFNIKDTYIQWVRQAPGQGLEWMGRIDPLRKQTKYREKFEGRVTITADTSTNTAYMELSSLRSEDTAVYYCVRSGREFDYWGQGTLVTVSSASTKGPSVFPLAPSSKSTSGGTAALGCLVKDYFPEPVTVSWNSGALTSGVHTFPAVLQSSGLYSLSSVVTVPSSSLGTQTYICNVNHKPSNTKVDKKVEPKSCDKTHTCPPCPAPELLGGPSVFLFPPKPKDTLMISRTPEVTCVVVDVSHEEPEVKFNWYVDGVEVHNAKTKPREEQYNSTYRVVSVLTVLHQDWLNGKEYKCKVSNDALPKPIEETISKAKGQPREPQVYTLPPSRCELTKNQVSLSCAVKGFYPSDIAVEWESNGQPENNYKTTPPVLDSDGSFFLVSKLTVDKSRWQQGNVFSCSVMHEALHNHYTQKSLSLSP
light: DIQMTQSPSSLSASVGDRVTITCRASQDIHKYIAWYQQKPGQAPRLLIQYTSTLQPGVPSRFSGSGSGTDYTFTISSLQPEDIATYYCLQYEQLRTFGGGTKVEIKRTVAAPSVFIFPPSDEQLKSGTASVVCLLNNFYPREAKVQWKVDNALQSGNSQESVTEQDSKDSTYSLSSTLTLSKADYEKHKVYACEVTHQGLSSPVTKSFNRGEC
notes: Kn120: L234Y/L235Y/G236W/S239M/H268D/S298A/A327D + Y349C/T366W; also called Kn120/H1068
As for B1, the “EC50 of reporter gene induction (ADCC Reporter Bioassay, Hepa1-6/hEREG target cells)” value in assay [1] turned out to be 1.35 ng/mL. Also, the “EC50 of reporter gene induction (ADCP Reporter Bioassay, Hepa1-6/hEREG target cells)” value in assay [2] was found to be 21.8 ng/mL. The “Relative value to KD between G1d and hFcgRs” value (“Relative value” below) in assay [3] was 3.4 times; in [4] it was 14.7 times; in assay [5] it was 49 times; in assay [6] it was 22.8 times; in assay [7], 460 times; in assay [8], 215 times. For the same molecule, the “A/I ratio (KD for FcγRIIb divided by KD for each FcγR)” value is 5.8 ratio in assay [9], 13 ratio in assay [10], 68.4 ratio in [11] and 264 ratio in assay [12].

B2: EGL-ART4 (H240-Kn456/L73-k0//H240-H1446/L73-k0) (antibody, human IgG1, kappa)
heavy 1: B1 heavy 1 with Y233F, Y234Q, T249V, D269E, T306P, D326A, A329M, I331E
heavy 2: B1 heavy 2 with G235A, T249V, S297A, T306P, K329M, I331E
light: B1 light
notes: Kn456: L234F/L235Q/G236W/S239M/T250V/H268D/D270E/S298A/T307P/A330M/I332E + Y349C/T366W; H1446: G236A/T250V/D270E/S298A/T307P/K326D/A330M/I332E/K334E + D356C/T366S/L368A/Y407V
In the case of B2, the “EC50 of reporter gene induction (ADCC Reporter Bioassay, Hepa1-6/hEREG target cells)” value in assay [1] amounted to 0.789 ng/mL. In [2], the “EC50 of reporter gene induction (ADCP Reporter Bioassay, Hepa1-6/hEREG target cells)” value amounted to 43.2 ng/mL. The “Relative value” value in [3] is 2.9 times; in assay [4], 6.3 times; in assay [5], 3.2 times; in [6], 0.9 times; in assay [7], 2520 times; in [8], 462 times. Besides, the “A/I ratio (KD for FcγRIIb divided by KD for each FcγR)” value amounted to 65.2 ratio in [9], 22.5 ratio in assay [10], 9940 ratio in assay [11] and 15000 ratio in assay [12].

B3: EGL-ART6 (H240-Kn462/L73-k0//H240-H1445/L73-k0) (antibody, human IgG1, kappa)
heavy 1: B1 heavy 1 with Y233F, Y234Q, T249V, D269E, T306P, K325D, D326A
heavy 2: B1 heavy 2 with G235A, T249V, S297A, T306P, I331D
light: B1 light
notes: H1445: G236A/T250V/D270E/S298A/T307P/K326D/A330K/I332D/K334E + D356C/T366S/L368A/Y407V
Consider B3, for which the “EC50 of reporter gene induction (ADCC Reporter Bioassay, Hepa1-6/hEREG target cells)” value in [1] was 1.5 ng/mL. Also, in assay [2], the “EC50 of reporter gene induction (ADCP Reporter Bioassay, Hepa1-6/hEREG target cells)” value came out at 19.2 ng/mL. Besides, the “Relative value” value in assay [3] turned out to be 1.2 times; in assay [4], 118 times; in assay [5] it was 24.1 times; in [6], 3.4 times; in assay [7], 987 times; in assay [8] it was 322 times. Moreover, the “A/I ratio (KD for FcγRIIb divided by KD for each FcγR)” value in assay [9] worked out at 307 ratio; in [10], 42.4 ratio; in assay [11], 976 ratio; in assay [12], 2630 ratio.

B4: EGL-ART3 (H240-Kn443/L73-k0//H240-H1408/L73-k0) (antibody, human IgG1, kappa)
heavy 1: B1 heavy 1 with Y233F, Y234Q, D269E, K325D, D326A
heavy 2: B1 heavy 2 with G235A, S297A, K329A
light: B1 light
notes: Kn443: L234F/L235Q/G236W/S239M/H268D/D270E/S298A/K326D + Y349C/T366W; H1408: G236A/D270E/S298A/K326D/K334E + D356C/T366S/L368A/Y407V
On to B4, for which the “EC50 of reporter gene induction (ADCC Reporter Bioassay, Hepa1-6/hEREG target cells)” value in assay [1] amounted to 1.53 ng/mL. Further, the “EC50 of reporter gene induction (ADCP Reporter Bioassay, Hepa1-6/hEREG target cells)” value in [2] was determined as 15.8 ng/mL. The “Relative value” value was 0.5 times in [3]; 32.1 times in [4]; 13.7 times in assay [5]; 1.6 times in assay [6]; 185 times in assay [7]; 114 times in assay [8]. Also, the “A/I ratio (KD for FcγRIIb divided by KD for each FcγR)” value in assay [9] amounted to 181 ratio; in assay [10], 52.4 ratio; in [11], 396 ratio; in assay [12], 2000 ratio.

B5: EGL-ART5 (H240-Kn462/L73-k0//H240-H1441/L73-k0) (antibody, human IgG1, kappa)
heavy 1: B1 heavy 1 with Y233F, Y234Q, T249V, D269E, T306P, K325D, D326A
heavy 2: B1 heavy 2 with G235A, T249V, S297A, T306P, K329A
light: B1 light
notes: Kn462: L234F/L235Q/G236W/S239M/T250V/H268D/D270E/S298A/T307P/K326D + Y349C/T366W; H1441: G236A/T250V/D270E/S298A/T307P/K326D/K334E + D356C/T366S/L368A/Y407V
As for B5, the “EC50 of reporter gene induction (ADCC Reporter Bioassay, Hepa1-6/hEREG target cells)” value in assay [1] came to 1.67 ng/mL. Also, in assay [2], the “EC50 of reporter gene induction (ADCP Reporter Bioassay, Hepa1-6/hEREG target cells)” value was 24.5 ng/mL. Also, the “Relative value” value in [3] was 0.5 times; in assay [4], 33.9 times; in assay [5], 10.4 times; in assay [6] it was 1.3 times; in assay [7] it was 148 times; in [8], 92.9 times. Further, the “A/I ratio (KD for FcγRIIb divided by KD for each FcγR)” value worked out at 240 ratio in assay [9], 49.9 ratio in assay [10], 399 ratio in assay [11] and 2060 ratio in assay [12].

For the origin of these results see patent US20240043515A1 (Chugai, published 2024).
